Laboratory results: doi:10.1101/2021.05.10.443412

Experiments:
[1] = biological target: T1, factor inhibiting HIF-1 (FIH-1), full-length (human), Q9NWT6; assay: SEC-MALS; conditions: remark: other sources report otherwise
[2] = biological target: T1, factor inhibiting HIF-1 (FIH-1), …; assay: SEC; conditions: remark: other sources report otherwise

B1: factor inhibiting HIF-1 (FIH-1), full-length, Q9NWT6 1-349 (enzyme)
chain: MAATAAEAVASGSGEPREEAGALGPAWDESQLRSYSFPTRPIPRLSQSDPRAEELIENEEPVVLTDTNLVYPALKWDLEYLQENIGNGDFSVYSASTHKFLYYDEKKMANFQNFKPRSNREEMKFHEFVEKLQDIQQRGGEERLYLQQTLNDTVGRKIVMDFLGFNWNWINKQQGKRGWGQLTSNLLLIGMEGNVTPAHYDEQQNFFAQIKGYKRCILFPPDQFECLYPYPVHHPCDRQSQVDFDNPDYERFPNFQNVVGYETVVGPGDVLYIPMYWWHHIESLLNGGITITVNFWYKGAPTPKRIEYPLKAHQKVAIMRNIEKMLGEALGNPQEVGPLLNTMIKGRYN
stoichiometry N [1]: 2
stoichiometry N [2]: 2
